T1: bDHFR (Bos taurus, UniProt P00376)
T1 sequence (P00376 1-187): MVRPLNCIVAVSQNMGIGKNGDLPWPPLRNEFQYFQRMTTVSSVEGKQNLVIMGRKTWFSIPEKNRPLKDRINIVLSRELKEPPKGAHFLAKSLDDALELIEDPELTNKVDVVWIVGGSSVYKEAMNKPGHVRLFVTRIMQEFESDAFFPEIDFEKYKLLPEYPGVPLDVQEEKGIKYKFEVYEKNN

T2: mDHFR (Mus musculus, UniProt P00375)
T2 sequence (P00375 1-187): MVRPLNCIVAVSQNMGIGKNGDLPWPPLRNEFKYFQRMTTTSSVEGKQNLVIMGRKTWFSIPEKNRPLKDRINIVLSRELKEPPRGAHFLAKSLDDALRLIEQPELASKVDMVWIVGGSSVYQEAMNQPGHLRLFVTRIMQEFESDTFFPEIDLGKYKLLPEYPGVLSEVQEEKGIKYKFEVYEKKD

B1: bDHFR (Bos taurus) (protein)
chain: T1 sequence (P00376 1-187)
B2: hDHFR (Homo sapiens) (protein)
chain: MVGSLNCIVAVSQNMGIGKNGDLPWPPLRNEFRYFQRMTTTSSVEGKQNLVIMGKKTWFSIPEKNRPLKGRINLVLSRELKEPPQGAHFLSRSLDDALKLTEQPELANKVDMVWIVGGSSVYKEAMNHPGHLKLFVTRIMQDFESDTFFPEIDLEKYKLLPEYPGVLSDVQEEKGIKYKFEVYEKND
B3: mDHFR (Mus musculus) (protein)
chain: T2 sequence (P00375 1-187)

Assays:
bDHFR [1] = biological target: T1, bDHFR; assay: spectrophotometric DHFR assay at […] nm; type: biochemical; conditions: read-out: % inhibition after preincubation with 0.68 mM
mDHFR = biological target: T2, mDHFR; assay: spectrophotometric DHFR assay at […] nm; type: biochemical; conditions: read-out: % inhibition at 122 μM
bDHFR [2] = biological target: T1, bDHFR; assay: spectrophotometric DHFR assay at […] nm; type: biochemical
purified protein [3] = substrate: Nc1nc2c(c(=O)[nH]1)N=C(CNc1ccc(C(=O)N[C@@H](CCC(=O)O)C(=O)O)cc1)CN2; assay: purified protein; conditions: 37 °C, KCl, co-substrate NADPH
purified protein [4] = substrate: NC(=O)C1=CN([C@@H]2O[C@H](COP(=O)(O)OP(=O)(O)OC[C@H]3O[C@@H](n4cnc5c(N)ncnc54)[C@H](OP(=O)(O)O)[C@@H]3O)[C@@H](O)[C@H]2O)C=CC1; assay: purified protein; type: biochemical, Bos taurus; conditions: 37 °C, KCl, co-substrate DHFA, varied: cofactor
purified protein [5] = substrate: NC(=O)C1=CN([C@@H]2O[C@H](COP(=O)(O)OP(=O)(O)OC[C@H]3O[C@@H](n4cnc5c(N)ncnc54)[C@H](OP(=O)(O)O)[C@@H]3O)[C@@H](O)[C@H]2O)C=CC1; assay: purified protein; type: biochemical, Mus musculus; conditions: 37 °C, KCl, co-substrate DHFA, varied: cofactor

Row | Molecule | Km (purified protein [3]) [µM] | kcat (purified protein [3]) [s⁻¹] | kcat/Km (purified protein [3]) [M⁻¹ s⁻¹] | other results
1 | O=C(O[C@@H]1Cc2c(O)cc(O)cc2O[C@@H]1c1cc(O)c(O)c(O)c1)c1cc(O)c(O)c(O)c1 [EGCG] |  |  |  | inhibition at 680 µM (bDHFR [1]): 26%; inhibition at 122 µM (mDHFR): 18%
2 | CNCCC=C1c2ccccc2CCc2ccccc21 [nortriptyline] |  |  |  | Ki (bDHFR [2]): 840 ± 250 nM
3 | B1 | 0.35 ± 0.13 | 24 ± 7 | 6.8e+07 | Km (purified protein [4]): 3.2 ± 0.6 µM; kcat (purified protein [4]): 24 ± 7 s⁻¹
4 | B2 | 2.7 ± 0.5 | 40 ± 2 | 1.5e+07 | 
5 | B3 | 0.32 ± 0.05 | 29 ± 5 | 9.2e+07 | Km (purified protein [5]): 2.4 ± 0.5 µM; kcat (purified protein [5]): 29 ± 5 s⁻¹
